# Positions count from the first letter of the chain named.
# B1: hu38 (antibody, V domains shown)
# VH: QVQLVQSGAEVKKPGASVKVSCKASGYTFIDFNMHWVRQAPGQRLEWMGYIYPYNGDVVYNQNFTNRVTLTVDTSSSTAYMELSSLRSEDTAVYYCAREGLGGYWGQGTLVTVSS
# VL: DIVLTQSPDSLAVSLGERATINCKASQNIDYGGYSYMNWYQQKPGQPPKVLIYSVFNLESGVPDRFSGSGSGTDFTLTISSLQAEDVAVYYCQQSNEAPYTFGQGTKLEIK
# notes: 1F5 HC-1/3H10 LC2-1
# B2: C125 (antibody, V domains shown)
# VH: EVQLQQSGPELVKPGASVKISCKASGYTFTDYNMHWVKQSHGKSLEWIGNIYPYNGGTVYNQKFNNKATLTVHTSSSTAYMDLRSLTSDDSAVYYCAREGLGGYWGQGTTLTVSS
# VL: DVVLTQSPTSLAVSLGQRATISCQASQNIDGNTYMNWYQQKPGQPPKVLIYSIFNLESGIPARFSGSGSGTHFTLTIHPVEEEDAATYYCQQSNDYPYTFGGGTKLEIK
# notes: 2B8-HC1 + 2B8-LC2; chimeric, human constant regions
# B3: C263 (antibody, V domains shown)
# VH: B2 VH with A24T, N50Y, Y52S, V59A, N65K, N66F, A68S, H73D, D82E, D89E
# VL: B2 VL
# notes: 3E5-HC + 2B8-LC2; chimeric, human constant regions
# B4: C48 (antibody, V domains shown)
# VH: EVQLQQSGPEVVKPGASVRISCQASGYTFTDYNMHWVKQSHGKSLEWIGYIFPYNGVAVYNRKFRSKATLIIDKSSTTAYMELRSLTSEDSAVYYCAREGLGGYWGQGTTLTVSS
# VL: DIVLTQSPASLAVSLGQRATISCKASQNIDYDGYAYLNWYQQKPGQPPKVLIYSVFNLESGIPARFSGSGSGTDFTLNIHPVEEEDAATYYCQQSNEFPYTFGGGTKLEVK
# notes: 1B2-HC + 1A2-LC2; chimeric, human constant regions
# B5: C51 (antibody, V domains shown)
# VH: B4 VH
# VL: B4 VL with Y31F, L37M, Q42H, K49R, N96H, F98V, K107N, V110I
# notes: 1B2-HC + 1F5-LC1; chimeric, human constant regions
# B6: C69 (antibody, V domains shown)
# VH: B4 VH
# VL: B4 VL with A9D, D32G, A35S, L37M, N78T, F98A, V110I, K111R
# notes: 1B2-HC + 3H10-LC2; chimeric, human constant regions
# B7: C258 (antibody, V domains shown)
# VH: B2 VH with A24T, N50Y, Y52S, V59A, N65K, N66F, A68S, H73D, D82E, D89E
# VL: B4 VL with Y31F, L37M, Q42H, K49R, N96H, F98V, K107N, V110I
# notes: 3E5-HC + 1F5-LC1; chimeric, human constant regions
# B8: C85 (antibody, V domains shown)
# VH: EVQLQQSGPELVKPGASVKISCKTSGYTFIDFNMHWVKQSHGKSLEWIGYIYPYNGDVVYNQNFTNKATLTVDSSSSTAYMELRRVTSEDSAIYYCAREGLGGYWGQGTTLTVSS
# VL: B4 VL with A35T, V55I, F98V, V110I
# notes: 1F5-HC + 3E5-LC; chimeric, human constant regions
# B9: C92 (antibody, V domains shown)
# VH: B8 VH
# VL: B4 VL with A9D, D32G, A35S, L37M, N78T, F98A, V110I, K111R
# notes: 1F5-HC + 3H10-LC2; chimeric, human constant regions
# B10: C120 (antibody, V domains shown)
# VH: B2 VH
# VL: B4 VL with Y31F, L37M, Q42H, K49R, N96H, F98V, K107N, V110I
# notes: 2B8-HC1 + 1F5-LC1; chimeric, human constant regions
# B11: C131 (antibody, V domains shown)
# VH: B2 VH
# VL: B4 VL with A35T, V55I, F98V, V110I
# notes: 2B8-HC1 + 3E5-LC; chimeric, human constant regions
# B12: C138 (antibody, V domains shown)
# VH: B2 VH
# VL: B4 VL with A9D, D32G, A35S, L37M, N78T, F98A, V110I, K111R
# notes: 2B8-HC1 + 3H10-LC2; chimeric, human constant regions
# B13: C255 (antibody, V domains shown)
# VH: B2 VH with A24T, N50Y, Y52S, V59A, N65K, N66F, A68S, H73D, D82E, D89E
# VL: B4 VL
# notes: 3E5-HC + 1A2-LC2; chimeric, human constant regions
# B14: C347 (antibody, V domains shown)
# VH: B2 VH with K13Q, K43E, N50Y, G57H, N65R, L70M, H73D, T74S, D89E, R98K
# VL: B4 VL
# notes: 3H10-HC + 1A2-LC2; chimeric, human constant regions
# B15: C97 (antibody, V domains shown)
# VH: EVQLQQSGPELVKPGASVKISCKASGYTFTDYNMHWVKQSHGKSLEWIGYVYPYNGGSAYNQKFKSKATLTVDTSSSIAYMDLHSLTSEDSAVYYCAREGLGGYWGQGTTLAVSS
# VL: B4 VL with Y31F, L37M, Q42H, K49R, N96H, F98V, K107N, V110I
# notes: 2A2-HC + 1F5-LC1; chimeric, human constant regions
# B16: C276 (antibody, V domains shown)
# VH: B2 VH with A24T, N50Y, Y52S, V59A, N65K, N66F, A68S, H73D, D82E, D89E
# VL: B4 VL with A9D, D32G, A35S, L37M, N78T, F98A, V110I, K111R
# notes: 3E5-HC + 3H10-LC2; chimeric, human constant regions
# B17: C350 (antibody, V domains shown)
# VH: B2 VH with K13Q, K43E, N50Y, G57H, N65R, L70M, H73D, T74S, D89E, R98K
# VL: B4 VL with Y31F, L37M, Q42H, K49R, N96H, F98V, K107N, V110I
# notes: 3H10-HC + 1F5-LC1; chimeric, human constant regions
# Biological target: CGRP antigen
# Assay: cell-based or functional assay
Binder,IC50 [µg/mL],relative activity (%) vs Ref(TEVA) [%]
B1,0.0725,50

# Biological target: T1, Biotin-huCGRPaSA (human, not fully specified; biotin (position not given))
# T1 construct: exact construct ('aSA') not explained; also called Biotin CGRPaSA; full-length (1-37) CGRP
# T1 peptide: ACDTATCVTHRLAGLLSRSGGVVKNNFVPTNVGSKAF
# Assay: ELISA, purified antibody; relative to reference 47-RM-20190815
# Procedure: Streptavidin was diluted to […] by using PBS (Hyclone) and added into a plate at 100 μL/well. The plate was incubated in a thermostat incubator at 37° C. for 90 min and then washed. 2% BSA was added to the plate at 200 μL/well, and the plate was incubated in the thermostat incubator at 37° C. for 90 min and washed. Biotin-huCGRPaSA was diluted to 2.0 μg/mL with 2% BSA and added into the plate at 100 μL/well, and the plate was incubated in the thermostat incubator at 37° C. for 60 min. The chimeric antibodies in Table 3 and reference antibody (47-RM-20190815) were diluted to 1000 ng/ml with a diluent (2% BSA) and serially 10-fold diluted to 1 ng/mL. All the chimeric antibody solutions and the reference antibody solution were added into plates at 100 μL/well, and the plates were incubated in a thermostat incubator at 37° C. for 60 min and washed. An HRP-conjugated mouse anti-human antibody IgG4 (manufacturer: Southern Biotech, Cat. No. 9200-05; Fc specificity) was diluted 5000-fold with 2% BSA and added into the plates at 100 μL/well, and the plates were incubated in the thermostat incubator at 37° C. for 60 min and washed. 0.1 mg/mL chromogenic reagent TMB was carefully added at 100 μL/well to avoid bubbles, and the system was incubated at 37° C. for 5 min away from light for chromogenic reaction. Finally, a 2 M hydrochloric acid solution was added at 100 μL/well to stop the reaction while avoiding bubbles, and the plates were read on a microplate reader within 10 min (the detection wavelength was 450 nm; the reference wavelength was 620 nm). EC₅₀ was fit by using a four-parameter logistic regression (4PL) model.
row,Binder,Relative activity (%)
1,B2,62.9
2,B3,111
3,B4,60.4
4,B5,56
5,B6,221
6,B7,99.8
7,B8,56.7
8,B9,68.5
9,B10,30.6
10,B11,116
11,B12,136
12,B13,108
13,B14,91.4
14,B15,41.9
15,B16,84.1
16,B17,108

# Biological target: CGRP antigen
# Assay: cell-based or functional assay
# Remark: another data set of the same source
row,Binder,Relative binding activity (%) vs Ref(Teva) [%]
1,B2,76.4
2,B4,93
3,B6,42.2
4,B15,98.4

# Biological target: CGRP antigen
# Assay: cell-based or functional assay
# Remark: another data set of the same source
row,Binder,Relative binding activity (%) vs Ref(Teva) [%]
1,B7,117
2,B8,111
3,B9,108
4,B10,50.3
5,B13,74.9
6,B14,87.6

# Biological target: T1, Biotin-huCGRPaSA
# Assay: ELISA, supernatant; relative to chimeric C245
# Summary of the method: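 Plates coated with biotin-CGRPaSA at 1.0 μg/mL (90 min, 37°C) and blocked with 2% BSA. Humanized antibodies and chimeric C245 reference, 2.5-fold serial dilutions from 1000 ng/mL, bound 60 min at 37°C. Detection by HRP anti-human IgG (Fc), TMB 15 min, read at 450/620 nm.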
row,Binder,"Relative binding activity, % [%]"
1,B1,139

# Biological target: T1, Biotin-huCGRPaSA
# Assay: ELISA, transfection supernatant, biotin-CGRP on streptavidin
# Procedure: Streptavidin was diluted to 0.5 μg/mL by using PBS (Hyclone) and added into a plate at 100 μL/well. The plate was incubated in a thermostat incubator at 37° C. for 90 min and then washed. 2% BSA was added to the plate at 200 μL/well, and the plate was incubated in the thermostat incubator at 37° C. for 90 min and washed. Biotin-huCGRPaSA was diluted to 2.0 μg/mL with 2% BSA and added into the plate at 100 μL/well, and the plate was incubated in the thermostat incubator at 37° C. for 60 min. The reference antibody (47-RM) was diluted to 2500 ng/ml with a diluent (2% BSA) and serially 4-fold diluted to 0.15 ng/mL, and the chimeric antibodies were diluted with a cell supernatant stock solution. All the chimeric antibody solutions and the reference antibody solution were added into plates at 80 μL/well, and the plates were incubated in a thermostat incubator at 37° C. for 60 min and washed. An HRP-conjugated mouse anti-human antibody IgG4 (manufacturer: Southern Biotech, Cat. No. 9200-05; Fc specificity) was diluted 5000-fold with 2% BSA and added into the plates at 100 μL/well, and the plates were incubated in the thermostat incubator at 37° C. for 60 min and washed. 0.1 mg/mL chromogenic reagent TMB was carefully added at 100 μL/well to avoid bubbles, and the system was incubated at 37° C. for 10 min away from light for chromogenic reaction. Finally, a 2 M hydrochloric acid solution was added at 100 μL/well to stop the reaction while avoiding bubbles, and the plates were read on a microplate reader within 10 min (the detection wavelength was 450 nm; the reference wavelength was 620 nm).
row,Binder,OD value [OD]
1,B2,3.08
2,B3,3.02
3,B4,3.12
4,B5,3.04
5,B6,3.07
6,B7,3.12
7,B8,3.11
8,B9,3.09
9,B10,3.09
10,B11,3.02
11,B12,3.06
12,B13,3.11
13,B14,3.01
14,B15,3.03
15,B16,3.01
16,B17,3

# Source: patent US20260125454A1 (SHANGHAI JUNSHI BIOSCIENCES, published 2026)
